{
  "source": "paper PMC9346951",
  "about": "(Nature, 2022)",
  "key": {"[1]": {"molecular_target": "T1, TGA3 NID (Arabidopsis thaliana, UniProt Q39234)", "T1 sequence (Q39234 160-384)": "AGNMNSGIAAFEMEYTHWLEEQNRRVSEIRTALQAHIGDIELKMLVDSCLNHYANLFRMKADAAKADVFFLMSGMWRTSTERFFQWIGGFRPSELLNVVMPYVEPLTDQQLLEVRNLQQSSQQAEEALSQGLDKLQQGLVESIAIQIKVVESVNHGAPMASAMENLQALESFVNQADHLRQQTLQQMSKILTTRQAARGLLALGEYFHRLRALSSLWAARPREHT", "experiment": "X-ray crystal structure", "format": "binding", "conditions": "co-purified from E. coli expression; crystals at pH 5.0, 20 °C"}, "[2]": {"molecular_target": "T2, Full-length Arabidopsis NPR1 (NPR1–Strep3, E. coli) (Arabidopsis thaliana, UniProt P93002 1-593)", "T2 sequence (looked up)": "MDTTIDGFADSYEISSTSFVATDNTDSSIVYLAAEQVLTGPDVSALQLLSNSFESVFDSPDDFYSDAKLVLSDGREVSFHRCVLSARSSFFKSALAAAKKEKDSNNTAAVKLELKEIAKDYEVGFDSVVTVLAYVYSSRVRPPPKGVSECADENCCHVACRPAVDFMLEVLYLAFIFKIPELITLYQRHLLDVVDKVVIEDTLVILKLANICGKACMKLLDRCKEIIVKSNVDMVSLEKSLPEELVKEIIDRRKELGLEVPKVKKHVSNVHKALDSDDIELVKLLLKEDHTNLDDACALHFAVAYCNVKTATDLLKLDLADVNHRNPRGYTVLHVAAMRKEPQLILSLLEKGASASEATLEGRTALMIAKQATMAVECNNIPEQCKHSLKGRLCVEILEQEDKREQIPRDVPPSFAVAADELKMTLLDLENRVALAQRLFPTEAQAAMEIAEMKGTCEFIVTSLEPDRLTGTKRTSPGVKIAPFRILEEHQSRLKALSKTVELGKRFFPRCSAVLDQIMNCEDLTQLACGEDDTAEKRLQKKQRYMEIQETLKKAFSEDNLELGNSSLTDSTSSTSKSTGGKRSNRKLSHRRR", "experiment": "cryo-EM structure"}, "[3]": {"molecular_target": "T3, Full-length Arabidopsis thaliana NPR1 (NPR1–Strep, insect cells) (Arabidopsis thaliana), P93002", "T3 chain": "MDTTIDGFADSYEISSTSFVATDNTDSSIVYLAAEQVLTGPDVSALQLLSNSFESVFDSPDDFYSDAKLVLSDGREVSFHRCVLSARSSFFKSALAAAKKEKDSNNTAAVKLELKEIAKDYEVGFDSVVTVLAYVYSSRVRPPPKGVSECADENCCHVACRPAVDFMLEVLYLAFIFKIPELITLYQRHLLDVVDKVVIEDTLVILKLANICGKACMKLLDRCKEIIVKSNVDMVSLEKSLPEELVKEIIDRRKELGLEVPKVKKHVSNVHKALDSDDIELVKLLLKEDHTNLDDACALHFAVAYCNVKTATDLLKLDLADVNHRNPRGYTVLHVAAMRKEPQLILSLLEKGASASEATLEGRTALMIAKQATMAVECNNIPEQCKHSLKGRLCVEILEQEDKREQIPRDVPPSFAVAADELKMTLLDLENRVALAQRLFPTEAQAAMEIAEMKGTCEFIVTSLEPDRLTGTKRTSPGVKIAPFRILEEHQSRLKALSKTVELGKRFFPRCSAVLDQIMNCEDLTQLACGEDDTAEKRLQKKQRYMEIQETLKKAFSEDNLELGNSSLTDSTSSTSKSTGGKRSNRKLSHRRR", "experiment": "cross-linking", "conditions": "remark: other sources report otherwise"}, "[4]": {"molecular_target": "NPR1 (Arabidopsis thaliana, UniProt P93002 1-593)", "experiment": "EMSA"}, "[5]": {"molecular_target": "TGA3;NPR1 (Arabidopsis thaliana;Arabidopsis …, UniProt Q39234;P93002 87-384;1-593, |)", "experiment": "EMSA"}, "[6]": {"molecular_target": "T4, TGA3 (Arabidopsis thaliana, UniProt Q39234 87-384)", "T4 sequence": "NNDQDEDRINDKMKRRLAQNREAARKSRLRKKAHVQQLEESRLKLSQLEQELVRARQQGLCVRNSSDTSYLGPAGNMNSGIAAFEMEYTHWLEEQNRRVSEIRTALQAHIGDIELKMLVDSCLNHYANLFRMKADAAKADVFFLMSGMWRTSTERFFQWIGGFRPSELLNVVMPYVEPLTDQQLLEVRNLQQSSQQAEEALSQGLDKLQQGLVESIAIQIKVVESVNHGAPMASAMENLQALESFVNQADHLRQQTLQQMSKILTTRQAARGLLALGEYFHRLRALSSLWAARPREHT", "experiment": "EMSA"}, "[7]": {"molecular_target": "the molecule itself", "experiment": "oxidation with hydrogen peroxide, non-reducing SDS–PAGE"}, "[8]": {"molecular_target": "T4, TGA3", "experiment": "EMSA", "remark": "listed apart in the source"}},
  "note": "Where two headings read alike, the source gives them in different places.",
  "data": [
    {"molecule": "CCCCCCCCCCCCCCCC(=O)O", "note": "[palmitic acid]", "values": [
      {"measurement": "X-ray crystal structure (1.5 Å); LC-ESI/MS of extracted lipid", "setting": "[1]", "value": "a palmitic acid was found inside the NID"}
    ]},
    {"molecule": "Arabidopsis TGA3 (Asn87–Thr384) (domain or fragment, Arabidopsis thaliana, UniProt Q39234 87-384, looked up) NNDQDEDRINDKMKRRLAQNREAARKSRLRKKAHVQQLEESRLKLSQLEQELVRARQQGLCVRNSSDTSYLGPAGNMNSGIAAFEMEYTHWLEEQNRRVSEIRTALQAHIGDIELKMLVDSCLNHYANLFRMKADAAKADVFFLMSGMWRTSTERFFQWIGGFRPSELLNVVMPYVEPLTDQQLLEVRNLQQSSQQAEEALSQGLDKLQQGLVESIAIQIKVVESVNHGAPMASAMENLQALESFVNQADHLRQQTLQQMSKILTTRQAARGLLALGEYFHRLRALSSLWAARPREHT", "values": [
      {"measurement": "binding result", "setting": "[2]", "value": "binds"}
    ]},
    {"molecule": "Full-length Arabidopsis thaliana NPR1 (NPR1–Strep, insect cells), P93002 1-593 (natural protein) MDTTIDGFADSYEISSTSFVATDNTDSSIVYLAAEQVLTGPDVSALQLLSNSFESVFDSPDDFYSDAKLVLSDGREVSFHRCVLSARSSFFKSALAAAKKEKDSNNTAAVKLELKEIAKDYEVGFDSVVTVLAYVYSSRVRPPPKGVSECADENCCHVACRPAVDFMLEVLYLAFIFKIPELITLYQRHLLDVVDKVVIEDTLVILKLANICGKACMKLLDRCKEIIVKSNVDMVSLEKSLPEELVKEIIDRRKELGLEVPKVKKHVSNVHKALDSDDIELVKLLLKEDHTNLDDACALHFAVAYCNVKTATDLLKLDLADVNHRNPRGYTVLHVAAMRKEPQLILSLLEKGASASEATLEGRTALMIAKQATMAVECNNIPEQCKHSLKGRLCVEILEQEDKREQIPRDVPPSFAVAADELKMTLLDLENRVALAQRLFPTEAQAAMEIAEMKGTCEFIVTSLEPDRLTGTKRTSPGVKIAPFRILEEHQSRLKALSKTVELGKRFFPRCSAVLDQIMNCEDLTQLACGEDDTAEKRLQKKQRYMEIQETLKKAFSEDNLELGNSSLTDSTSSTSKSTGGKRSNRKLSHRRR", "values": [
      {"measurement": "stoichiometry N", "setting": "[3]", "value": 2}
    ]},
    {"molecule": "LS5/LS7 (dsDNA) DNA 1: GGGCTATGACGTAAGTAAAATAGTGACGTAGAGAGGG DNA 2: CCCTCTCTACGTCACTATTTTACTTACGTCATAGCCC", "values": [
      {"measurement": "binding result", "setting": "[4]", "value": "no binding"},
      {"measurement": "binding result", "setting": "[5]", "value": "binds"},
      {"measurement": "binding result", "setting": "[6]", "value": "binds"}
    ]},
    {"molecule": "NPR1 BTB/BHB (Thr39–Lys262) npr1(C82A) (domain or fragment, Arabidopsis thaliana, UniProt P93002 39-262, looked up) TGPDVSALQLLSNSFESVFDSPDDFYSDAKLVLSDGREVSFHRAVLSARSSFFKSALAAAKKEKDSNNTAAVKLELKEIAKDYEVGFDSVVTVLAYVYSSRVRPPPKGVSECADENCCHVACRPAVDFMLEVLYLAFIFKIPELITLYQRHLLDVVDKVVIEDTLVILKLANICGKACMKLLDRCKEIIVKSNVDMVSLEKSLPEELVKEIIDRRKELGLEVPK", "values": [
      {"measurement": "binding result", "setting": "[7]", "value": "binds"}
    ]},
    {"molecule": "WT NPR1 BTB/BHB (Thr39–Lys262) (domain or fragment, Arabidopsis thaliana, UniProt P93002 39-262, looked up) TGPDVSALQLLSNSFESVFDSPDDFYSDAKLVLSDGREVSFHRCVLSARSSFFKSALAAAKKEKDSNNTAAVKLELKEIAKDYEVGFDSVVTVLAYVYSSRVRPPPKGVSECADENCCHVACRPAVDFMLEVLYLAFIFKIPELITLYQRHLLDVVDKVVIEDTLVILKLANICGKACMKLLDRCKEIIVKSNVDMVSLEKSLPEELVKEIIDRRKELGLEVPK", "values": [
      {"measurement": "binding result", "setting": "[7]", "value": "binds"}
    ]},
    {"molecule": "NPR1 BTB/BHB (Thr39–Lys262) npr1(C212V/C216A/C223L) (domain or fragment, Arabidopsis thaliana, UniProt P93002 39-262, looked up) TGPDVSALQLLSNSFESVFDSPDDFYSDAKLVLSDGREVSFHRCVLSARSSFFKSALAAAKKEKDSNNTAAVKLELKEIAKDYEVGFDSVVTVLAYVYSSRVRPPPKGVSECADENCCHVACRPAVDFMLEVLYLAFIFKIPELITLYQRHLLDVVDKVVIEDTLVILKLANIVGKAAMKLLDRLKEIIVKSNVDMVSLEKSLPEELVKEIIDRRKELGLEVPK", "values": [
      {"measurement": "binding result", "setting": "[7]", "value": "binds"}
    ]},
    {"molecule": "LS5-/LS7- (dsDNA) DNA 1: GGGCTAAAAAAAAAGTAAAATAGAAAAAAAAAGAGGG DNA 2: CCCTCTTTTTTTTTCTATTTTACTTTTTTTTTAGCCC", "values": [
      {"measurement": "binding result", "setting": "[8]", "value": "no binding"}
    ]}
  ]
}
